# Measured values as given in patent publication US20190284299A1.
# How the values were obtained:
# [1] = target: CD3 on Jurkat cells (Homo sapiens (Human)) (UniProt P07766); test: flow cytometry on Jurkat cells, as in Example 8
# [2] = target: CD3 on Jurkat cells (Homo sapiens (Human)) (UniProt P07766); test: flow cytometry on Jurkat cells, 5 nM, anti-human IgG-FITC
# [3] = target: CD3 on Jurkat cells (Homo sapiens (Human)) (UniProt P07766); test: flow cytometry on Jurkat cells, as in Example 8; remark: listed apart in the source
# [4] = target: CD3 on Jurkat cells (Homo sapiens (Human)) (UniProt P07766); test: flow cytometry on Jurkat cells, as in Example 8; remark: listed apart in the source
# CD20 on Raji cells = CD20 on Raji cells (UniProt P11836); test: flow cytometry on Raji cells, as in Example 8
# HER2 on SK-BR-3 cells = HER2 on SK-BR-3 cells (UniProt P04626); test: flow cytometry on SK-BR-3 cells, 0.5 nM, anti-human IgG-FITC
# Sequence of CD3 on Jurkat cells (Homo sapiens (Human)) (P07766 23-207 limits assumed, form in doubt, chain 1 of 3): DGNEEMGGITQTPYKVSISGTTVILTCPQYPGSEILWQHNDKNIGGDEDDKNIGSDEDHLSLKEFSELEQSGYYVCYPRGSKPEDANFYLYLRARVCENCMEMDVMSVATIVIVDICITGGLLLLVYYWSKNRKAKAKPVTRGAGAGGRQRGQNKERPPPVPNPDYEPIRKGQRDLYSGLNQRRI
# Sequence of CD3 on Jurkat cells (Homo sapiens (Human)) (delta, as listed by the source limits assumed, form in doubt, chain 2 of 3): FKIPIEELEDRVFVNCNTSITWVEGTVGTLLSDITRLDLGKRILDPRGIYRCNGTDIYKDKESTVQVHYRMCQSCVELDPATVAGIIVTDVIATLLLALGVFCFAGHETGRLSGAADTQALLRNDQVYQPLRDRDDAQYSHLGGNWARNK
# Sequence of CD3 on Jurkat cells (Homo sapiens (Human)) (gamma, as listed by the source limits assumed, form in doubt, chain 3 of 3): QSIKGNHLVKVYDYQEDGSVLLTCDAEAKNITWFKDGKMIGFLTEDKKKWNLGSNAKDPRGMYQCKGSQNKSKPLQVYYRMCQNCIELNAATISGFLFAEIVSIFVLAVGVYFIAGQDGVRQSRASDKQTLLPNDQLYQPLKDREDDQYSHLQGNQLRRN
# Sequence of CD20 on Raji cells (P11836 whole entry): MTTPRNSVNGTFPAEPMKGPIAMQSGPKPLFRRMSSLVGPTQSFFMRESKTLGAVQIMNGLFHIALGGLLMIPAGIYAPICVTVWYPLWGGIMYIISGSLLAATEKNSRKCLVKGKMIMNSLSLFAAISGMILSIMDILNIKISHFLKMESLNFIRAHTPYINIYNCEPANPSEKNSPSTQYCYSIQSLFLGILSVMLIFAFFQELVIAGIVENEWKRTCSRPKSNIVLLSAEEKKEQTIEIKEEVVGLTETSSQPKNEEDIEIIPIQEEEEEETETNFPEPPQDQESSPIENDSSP
substance,measurement,setting,value
"isotype control (human immunoglobulin, Jiangxi Boya Bio-pharmaceutical, Approval No.S19993012) (antibody)",MFI,[1],2.75
same,MFI,[2],3.16
same,MFI,[3],2.7
same,MFI,[4],3.34
same,MFI,CD20 on Raji cells,2.77
same,Mean Fluorescence Intensity (MFI),HER2 on SK-BR-3 cells,2.88
